What follows are substances tested against TNF receptor-associated factor 2 (TRAF2) (human (endogenous in HEK293)) (UniProt Q12933).
Sequence of UniProt Q12933 (Q12933 whole entry, the tested form may be a part): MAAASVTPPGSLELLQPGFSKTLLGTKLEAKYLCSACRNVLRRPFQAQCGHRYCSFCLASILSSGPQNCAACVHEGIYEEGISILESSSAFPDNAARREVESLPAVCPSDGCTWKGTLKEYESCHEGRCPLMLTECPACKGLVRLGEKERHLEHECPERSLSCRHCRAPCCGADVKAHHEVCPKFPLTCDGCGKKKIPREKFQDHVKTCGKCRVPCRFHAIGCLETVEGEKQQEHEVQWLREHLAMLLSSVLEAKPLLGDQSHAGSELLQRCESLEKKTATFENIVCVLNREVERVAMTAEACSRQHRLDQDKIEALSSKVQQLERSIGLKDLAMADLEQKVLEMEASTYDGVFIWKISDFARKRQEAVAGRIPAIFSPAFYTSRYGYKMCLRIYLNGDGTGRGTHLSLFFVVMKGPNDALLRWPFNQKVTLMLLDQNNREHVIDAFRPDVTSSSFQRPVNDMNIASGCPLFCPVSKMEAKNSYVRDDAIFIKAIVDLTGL
“GRA15II-51-550 with the deletion SQQE430-433, fused to GFP (from UniProt A0A125YGQ9 51-550) (domain or fragment)” was tested, and the NF-κB luciferase reporter activity in transiently transfected HEK293 reporter cells, decrease compared to full-length GRA15II-51–550 was 60%. “GRA15II-51-550 with the deletions AAEE160-163/SQQE430-433, fused to GFP (from UniProt A0A125YGQ9 51-550) (domain or fragment)” was tested, and the NF-κB luciferase reporter activity in transiently transfected HEK293 reporter cells, decrease compared to full-length GRA15II-51–550 was 75%. “GRA15II-51-550 with the deletion AAEE160-163, fused to GFP (from UniProt A0A125YGQ9 51-550) (domain or fragment)” showed an NF-κB luciferase reporter activity in transiently transfected HEK293 reporter cells, decrease compared to full-length GRA15II-51–550 of 60%.

Reference: article PMC6635525
